Source: paper PMC7538601, “Low-Zone IL-2 Signaling: Fusion Proteins Containing Linked CD25 and IL-2 Domains Sustain Tolerogenic Vaccination in vivo and Promote Dominance of FOXP3^+ Tregs in vitro” (Frontiers in Immunology, 2020)
One block for each binder: values may come before it.

Assays:
[1] = target: T1, Full length murine CD25 on HEK cells (mouse, UniProt P01590 22-268); experiment: cell-based or functional assay
T1 sequence (looked up): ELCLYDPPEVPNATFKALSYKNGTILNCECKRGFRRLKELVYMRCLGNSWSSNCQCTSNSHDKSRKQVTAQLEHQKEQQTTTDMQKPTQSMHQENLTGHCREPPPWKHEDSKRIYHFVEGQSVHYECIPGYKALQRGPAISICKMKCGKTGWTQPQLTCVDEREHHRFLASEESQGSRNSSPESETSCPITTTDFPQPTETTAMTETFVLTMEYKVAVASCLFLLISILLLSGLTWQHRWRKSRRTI

[2] = target: the molecule itself; experiment: SEC; Superdex 200 Increase 10/300 GL, 0.5 ml/min, 10 mM HEPES pH 7.3, 140 mM NaCl; 500 ul sample at 0.5 mg/ml; apparent molecular weights against Bio-Rad gel filtration standard

proliferation ([3H]thymidine) of the IL-2 dependent mouse T cell line SJL-PLP.1; potency against mouse IL-2 [1]: ~320 fold less potent than IL-2
B1: IL2-CD25 fusion protein (other, mouse)
chain: APTSSSTSSSTAEAQQQQQQQQQQQQHLEQLLMDLQELLSRMENYRNLKLPRMLTFKFYLPKQATELKDLQCLEDELGPLRHVLDLTQSKSFQLEDAENFISNIRVTVVKLKGSDNTFECQFDDESATVVDFLRRWIAFCQSIISTSPQGGGGSTRGGGGSTGGGGSGGGGSELCLYDPPEVPNATFKALSYKNGTILNCECKRGFRRLKELVYMRCLGNSWSSNCQCTSNSHDKSRKQVTAQLEHQKEQQTTTDMQKPTQSMHQENLTGHCREPPPWKHEDSKRIYHFVEGQSVHYECIPGYKALQRGPAISICKMKCGKTGWTQPQLTCVDEREHHRFLASEESQGSRNSSPESETSCPITTTDFPQPTETTAMTETFVLTMEYK
notes: signal peptide in the construct; murine IL-2, aa1-169 of NP_032392; 23-aa flexible linker; murine soluble CD25 (IL-2 receptor alpha chain), aa22-236 of NP_032393; Glycosylated; about 70 kDa on SDS-PAGE, reducing and non-reducing; By SEC it runs as higher order multimers; also called IL2-CD25 FP; FP; source: HEK293F, stably transfected (pIRES AcGFP1), expression supernatant, purified (Ni-NTA); not …
binding result [2]: binds

proliferation ([3H]thymidine) of the IL-2 dependent mouse T cell line SJL-PLP.1; potency against mouse IL-2 [1]: ~32 fold less potent than IL-2
B2: CD25-IL2 fusion protein (other, mouse)
chain: ELCLYDPPEVPNATFKALSYKNGTILNCECKRGFRRLKELVYMRCLGNSWSSNCQCTSNSHDKSRKQVTAQLEHQKEQQTTTDMQKPTQSMHQENLTGHCREPPPWKHEDSKRIYHFVEGQSVHYECIPGYKALQRGPAISICKMKCGKTGWTQPQLTCVDEREHHRFLASEESQGSRNSSPESETSCPITTTDFPQPTETTAMTETFVLTMEYKGGGGSTRGGGGSTGGGGSGGGGSSAPTSSSTSSSTAEAQQQQQQQQQQQQHLEQLLMDLQELLSRMENYRNLKLPRMLTFKFYLPKQATELKDLQCLEDELGPLRHVLDLTQSKSFQLEDAENFISNIRVTVVKLKGSDNTFECQFDDESATVVDFLRRWIAFCQSIISTSPQ
notes: signal peptide in the construct; murine soluble CD25 (IL-2 receptor alpha chain), aa1-236 of NP_032393; 23-aa flexible linker; murine IL-2, aa20-169 of NP_032392; Glycosylated; about 70 kDa on SDS-PAGE, reducing and non-reducing; By SEC it runs as higher order multimers; also called CD25-IL2 FP; FP; source: HEK293F, stably transfected (pCMV), expression supernatant, purified (Ni-NTA); not shown: …
binding result [2]: binds
